± gives the standard deviation.
Test: protein stability index of a GFP-peptide fusion (GPS, HEK-293T) (PSI 1-6); higher = more stable
Settings: c terminus: a fixed tail appended
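Also: 24-mer peptide tiles fused after GFP, lentivirally expressed, FACS-sorted into six equal bins by GFP/DsRed ratio, decoded by Illumina sequencing, PSI is the read-weighted mean bin number.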

| Sequence | protein stability index (treatment: DMSO) | protein stability index (treatment: MLN4924 1 uM, 8 h) |
| --- | --- | --- |
| RYLGRPPSPTSPPPPELMDVSLVG [DYRK1B] | 3.98 ± 0.26 | 4.07 ± 0.29 |
| LCRRLNTLNKCAVMKLEISPHRKR [DLC1] | 2.12 ± 0.069 | 2.85 ± 0.22 |
| MAAHLKKRVYEEFTKVVQPQEEIA [INTS4] | 3.67 ± 0.093 | 3.68 ± 0.7 |
| DDPENKKTSSSSKAGFTASPFTNL [CDC14A] | 4.92 ± 0.27 | 4.95 ± 0.14 |
| VSFEDPEFKSSFSQSFSLYVKYQV [ATE1] | 2.99 ± 0.81 | 2.51 ± 0.61 |
| RFEEGGRRKCGQYWPLEKDSRIRF [PTPN9] | 3.04 ± 0.36 | 2.88 ± 0.33 |
| AKLGTQAEKDRRLKKKHQLLEDAR [PPFIA4] | 4.26 ± 0.37 | 4.44 ± 0.1 |
| RLDFFEKPDYEYLRTLFTDLFEKK [CSNK1G1] | 2.54 ± 0.38 | 2.77 ± 0.41 |
| SKAPGSCDPGTDPCPEDASTPRPP [TLE6] | 5.59 ± 0.28 | 5.45 ± 0.081 |
| LLRRDLGVGTSMEGASPLSERCQR [FANCE] | 4.01 ± 0.15 | 4.17 ± 0.083 |
| PPHREGEAAGGDHETESTSDKETD [CDS1] | 5.67 ± 0.31 | 5.58 ± 0.57 |
| ELVLEQQLDREAQARHQLVLTAVD [PCDHGC5] | 3.99 ± 0.15 | 4.103 ± 0.038 |
| KTSELLVRKWRVKSALGAMGQWQL [DPCD] | 2.56 ± 0.76 | 2.47 ± 0.41 |
| SAAGIEARSRALRRRWCPAGIMLL [SPACA3] | 2.3 ± 0.11 | 2.38 ± 0.15 |
| ATRSTTQSNRTSRLIGKKMNRSVS [WEE1] | 4.27 ± 0.28 | 4.21 ± 0.3 |
| PEASHLRFRRFRFQEAAGPREALS [ZNF263] | 3.15 ± 0.42 | 3.31 ± 0.51 |
| LPEKPVKLASHTRDTTGVSQMFPS [FBF1] | 3.97 ± 0.13 | 3.99 ± 0.47 |
| SYIGLPYADHNYGARPPPTPPASP [KMT2E] | 4.66 ± 0.32 | 4.73 ± 0.24 |

| Sequence | protein stability index (treatment: DMSO) | protein stability index (treatment: MLN4924 1 uM, 8 h) |
| --- | --- | --- |
| PHQREKIDKEIELHRILHHKHVVQ [PLK2] | 3.48 ± 0.19 | 3.73 ± 0.34 |
| IIYKQTKGGVQNFNKDLVQDCGFE [CEP70] | 1.96 ± 0.42 | 2.66 ± 0.22 |
| DIKKVNNFIREQDLYALKSVKIPV [LYSMD4] | 2.38 ± 0.15 | 2.53 ± 0.4 |
| ARYGHLDMVEFLLEQCSASIEVGG [FEM1C] | 2.48 ± 0.5 | 2.14 ± 0.36 |
| AIMNALIEAGAHMDATNAFKKTAY [FEM1A] | 2.51 ± 0.39 | 2.11 ± 0.35 |
| EIILYWKHSTIFDVGENLTVPDEF [SLC25A25] | 2.23 ± 0.85 | 2.1 ± 0.39 |
| QSGATISMPCSTDKENGENVGLES [SASS6] | 5.55 ± 0.22 | 5.43 ± 0.27 |
| FDECGITDDQLLALLPSLSHCSQL [PRAME] | 3.31 ± 0.15 | 3.56 ± 0.19 |
| HRLKLRLAIQEMVSLTSPSAPPTS [PPFIA4] | 2.5 ± 0.43 | 2.46 ± 0.24 |
| PDEGSDLFYDDYYEDGEVEEEADS [CDC34] | 5.36 ± 0.32 | 5.66 ± 0.25 |
| FIPSSHNDRDFLTRIFTEDRFAQD [PPEF2] | 2.58 ± 0.81 | 3.05 ± 0.64 |
| MPNVMTGTMGMAPLGNTPMMNQSM [CLINT1] | 3.68 ± 0.23 | 3.48 ± 0.27 |
| EFDYLKSLEIEEKINKIRWLPQQN [PPP2R2B] | 2.62 ± 0.21 | 2.9 ± 0.42 |
| ALPIATAFTEYVHAYFRGHSPSCL [FCHO1] | 2.73 ± 0.55 | 2.78 ± 0.57 |
| VNVPGSFVCQCYSGYALAEDGKRC [MATN2] | 2.75 ± 0.42 | 3.05 ± 0.46 |
| PRGQEGSRQDKPLSPAGSSQEAAD [YJU2B] | 5.54 ± 0.079 | 5.48 ± 0.2 |
| DLMKRLRFALIPAPELVERVQSVD [KLHL14] | 2.16 ± 0.14 | 2.3 ± 0.21 |
| NVVVHDWLYYYAYKDFLWFFSKRF [SOAT1] | 2.18 ± 0.35 | 2.17 ± 0.44 |

Source: the supplement of paper PMC10567573
